Measurements as given in the RNAGym collection of RNA variant scans (doi:10.1021/acssynbio.7b00057).

B1: Pistol ribozyme (parent)
chain: GGGUCGUUGUUCCAUAAUCGCGUGGAUAUGGCACGCAAGUUUCUACCGGGCACCGUAAAUGUCCGACUGGAGCCGUUCGGGCGGCUAUAAACAGACCUCAGGCCCGAAGCGUGGCGGCACCUGCCGCCGGUGGUAAAAAAGAUCGGAAGAGCACACGUCU

Variants of: B1
Experiment: aptazyme ON/OFF ratio, guanine; higher = stronger switching; co-transcriptional cleavage with and without guanine

Row | Variant | aptazyme ON/OFF ratio
1 | U8A G9C U10C C13U | 1.06
2 | G9U U10A C12U C13U | 1.06
3 | G9A U10G U11C C13U | 1.09
4 | U7A U8C G9C U10C C12A C13U | 0.999
5 | U8G G9A U10A U11G C12U C13G | 1.25
6 | G9A U10G U11A C12A C13U | 1.1
7 | U7A U8A G9A U10A U11A C13U | 1.3
8 | U8G G9U U11G C12A C13U | 1.21
9 | U7G U8A G9A U10G C12A | 1.32
10 | U7C U8C G9A U10A U11C C12A C13A | 1.17
11 | U8C G9C U11A C12A C13U | 1.05
12 | U7A U8C G9C U11G C12U | 1.28
13 | U7G U8A G9C U10C U11G C12A C13U | 1.01
14 | U7C U8A G9C U10A C12G C13G | 1.21
15 | U7G G9U U10C U11C C12A | 1.37
16 | U8G U10G U11A C12G C13G | 1.17
17 | U7C U8C G9A U10A U11A C13G | 1.2
18 | U7G U8G G9C U10C U11A C13A | 1.21
19 | U7C G9A U11A C12A C13U | 1.21
20 | U7C U8G G9U U10C U11C C12U C13U | 1.09
21 | U7A U8A U10A U11C C12U C13A | 1.11
22 | U7C U8C G9C U10C U11A C12G C13A | 1.11
23 | U8G G9A U11A C13U | 1.23
24 | U7A G9U U10C C12A C13A | 1.21

Row | Variant | aptazyme ON/OFF ratio
25 | U7A U8A G9C U10G C12A | 1.1
26 | U8A U10A U11G C12A C13A | 1.13
27 | U7A G9A U10G U11G C13A | 1.25
28 | U7G U8A G9U U10A C12G C13G | 1.07
29 | U8G U10A U11C C12A C13U | 1.14
30 | U7G U8A G9C U10C C12U C13U | 1.01
31 | U8G G9A U10G U11G C12G | 1.33
32 | U7G U8G G9A U10A U11C C12U C13A | 1.08
33 | U7G U8A G9U U10G C12U C13A | 1.05
34 | U7C G9A U10G U11C C12A C13G | 1.11
35 | U7C U8G G9C U10G C12U | 1.4
36 | U7C U8A G9C U11G C12A C13A | 1.13
37 | U7A U8G G9C U11A C13U | 1.36
38 | U8G G9A U10A U11G C12G | 1.48
39 | U7G U8A G9A U10G U11A C13G | 1.06
40 | U7G U8A G9A U10C U11C C13U | 1.03
41 | U7G U8A G9C C12A C13U | 0.986
42 | U7G C12G | 1.25
43 | U7G C12A | 1.14
44 | U7A U8G G9A U11C C12A C13U | 1.38
45 | U7C U8C U10G U11C C12G C13A | 1.17
46 | U7C U8G G9U U10G C12G C13G | 1.08
47 | U7G U8G U10G C12A C13U | 1.4
48 | U7G U8G U10G C12A C13G | 1.19

Row | Variant | aptazyme ON/OFF ratio
49 | G9A C12G C13G | 1.46
50 | U7A U8A U10A C12G | 1.26
51 | U7A U8A G9A U10A U11C C13A | 1.05
52 | U7A U8A G9A U10A U11C C13G | 1.06
53 | U7A G9A U11G C13A | 1.26
54 | U7A U8G G9C U10A U11G C12U | 1.08
55 | U7C U8G G9U U10G U11C C12U | 1.09
56 | G9A | 3.41
57 | G9C U11G C12G C13U | 1.05
58 | U7A U8G U11C C12U C13U | 1.36
59 | U7C U8A U11G C13A | 1.14
60 | U8C G9U U10G U11G C12G C13G | 1.1
61 | U7G U8A G9U U10A U11C C13U | 1.02
62 | U7G U8G G9A U10C U11G C12G | 1.53
63 | U7G G9A U11C C12G | 1.27
64 | U8A G9U C13G | 1.09
65 | U7A U8C U10C U11G C12U C13G | 1.16
66 | U7C U8G G9A U10A U11A C12G C13A | 1.12
67 | U7G U8C G9C U11G C13G | 1.17
68 | U7G G9U U10C U11G C12G | 1.25
69 | U8C G9U U10C U11C C12G C13G | 1.15
70 | U7A U8A G9U U11A C12G C13U | 1.14
71 | U7A U8G G9C U10A U11A C12U | 1.44
72 | U7C G9A C12U | 1.16

Row | Variant | aptazyme ON/OFF ratio
73 | U7C U8A G9U U10C U11A C12U | 1.12
74 | U7A G9U U10G C12G C13G | 1.25
75 | U7A U8G U11A C12U | 1.23
76 | U7G G9A U10A U11G C12A C13G | 1.08
77 | U7G U8A U10A U11A C13U | 1.21
78 | U7G G9U U10C C12G | 1.37
79 | U7A U8C U10A U11A C12G C13U | 1.28
80 | U7A U8G G9C U10G C12A C13G | 1.1
81 | U7G U8C G9C U10C U11G C12U C13G | 1.08
82 | U7A U8C G9U U10G U11G C12U | 1.25
83 | U7G U8A G9U U10C C12A C13G | 1.12
84 | U7G G9A U10C C12A C13U | 1.15
85 | U7A U8G U10A U11C C12G C13A | 1.56
86 | U7G U8G G9C U10G C12A | 1.14
87 | U7G U8C G9C U10G U11G C12G | 1.13
88 | U7C G9C U10A C12G | 1.09
89 | U7A G9A U10G U11A C12A C13A | 1.11
90 | U7A U8G G9C U10A C12A C13A | 1.25
91 | U7A U8C G9A U10G U11C C13A | 1.06
92 | U7G G9U U10C C13G | 1.1
93 | U7A U8G G9U U10A C12U | 1.4
94 | U7G G9A U10C U11C C13G | 1.03
95 | U7G U8A G9A U10G U11C C12A C13G | 1.09
96 | U7G U11C C12A C13U | 1.22

Row | Variant | aptazyme ON/OFF ratio
97 | U7A U8A G9U U10A U11G C12G | 1.19
98 | U7A U8G G9A U10G U11A C12A C13G | 1.41
99 | U7G U8A G9A U11C C13A | 1.07
100 | U7C G9C U10G U11C C13U | 1.06
101 | U7C U8A G9A U11G C12U C13U | 1.18
102 | U7G U8G G9A C12U | 1.68
103 | U8G G9A U10G U11A C13A | 1.14
104 | U7C U8A U10A U11G C12U | 1.24
105 | U7C U8A G9C U10A U11A C12G C13A | 1.1
106 | U7C U8C G9A U10C C12U C13A | 1.22
107 | U7G U8C G9C U10C U11G C12A C13G | 1.09
108 | U8C G9A U10A U11A C12G C13G | 1.17
109 | U8G G9U U10C C12U | 1.09
110 | U7C U8C G9A U10C U11A | 1.8
111 | G9U U10A U11G C13A | 1.56
112 | U7G U8C G9U U10A C13G | 1.08
113 | U7G U8C G9A U10G U11G C12U | 1.35
114 | U7C G9A U10C C12G C13A | 1.26
115 | U8A U10G U11C C13A | 1.06
116 | U7A U8G G9A U10C U11C C12G C13A | 1.11
117 | U7G G9C U10A C12A C13A | 1.2
118 | U7G U10G U11A C12A | 1.14
119 | U7A U8G G9A U11A C12U C13U | 1.32
120 | U7A G9C U10C C13G | 1.05

Row | Variant | aptazyme ON/OFF ratio
121 | U7A U8C G9C U10A U11C C12A C13A | 1.15
122 | U7C U8A G9A U11C C13G | 1.02
123 | U7G U8C U10G U11C C13U | 1.4
124 | U7G U8C G9U U10G U11A C12G | 1.34
125 | U7A U10A C12G C13G | 1.25
126 | U7G G9A U10G U11A C12A C13U | 1.09
127 | U7A U8G G9A U11A C13A | 1.24
128 | U7C U8G G9C U10C U11A C12U C13A | 1.08
129 | U7G U8G G9C U10G C12G C13G | 1.12
130 | U7A U8C G9U U10G U11G | 1.11
131 | G9A U11G C12A | 1.1
132 | U8C G9A U11C | 1.09
133 | U8A G9U U10A U11A C12A C13U | 1.24
134 | U7A G9C U10C U11C C12G C13A | 1.06
135 | U7G U8A G9C U10G U11A C12U C13A | 1.03
136 | U7G G9A C12G | 1.2
137 | U7C U8G G9U U10A U11G C12A C13U | 1.06
138 | U8G G9C U11G C12G C13U | 1.11
139 | U7G U8C G9C U10A U11C C12U C13A | 1.36
140 | U7G U8G G9U C12U C13U | 1.26
141 | U7G U8G G9U U10G U11A | 1.4
142 | G9U U10G U11G C12G C13U | 1.27
143 | U7A U8C G9C U10A | 1.17
144 | U8G G9U U10A U11C C12U C13G | 1.05

Row | Variant | aptazyme ON/OFF ratio
145 | U8C G9A U10C U11C C12A | 1.17
146 | U7G U8C G9C U11G | 1.33
147 | U7G U10C U11G C12U C13U | 1.18
148 | U8G G9U U10C U11A C12U C13G | 1.11
149 | U7C U8G U10G U11C C13U | 1.14
150 | U8A G9A U10C C12A | 1.15
151 | U8A G9A U10C C12U | 1.24
152 | U8A U10A U11C C12A | 1.09
153 | U7A U8G G9C U10C U11G C13A | 1.25
154 | U8A G9A U11G C12G C13A | 1.23
155 | U7A U8G G9U U10C U11A C12U C13G | 1.32
156 | U7A U8A G9A U10C U11C C12U C13U | 1.05
157 | U7A U8G G9A U11G C12A | 1.14
158 | U7C U8A G9A U10A U11A | 1.22
159 | U7G U8C U11G C12U C13G | 1.08
160 | G9C U10A U11A C12U C13A | 1.34
161 | U7A U8A U10C U11C C12A C13G | 1.09
162 | U7G U8A U10G U11G | 1.59
163 | U7C G9U U10A C12U C13G | 1.11
164 | U8A | 2.82
165 | U7C U8A G9U U10C U11G C12A C13G | 1.09
166 | U7A U8G G9C U10C | 2.58
167 | U7A U8A G9U U10A U11A C12A C13A | 1.35
